B1: MSLN-CDH3 T-cell engager molecule 4 (example to FIG. 2B) (bispecific antibody)
chain 1: not shown
chain 2: EVQLVESGGGLVQPGGSLKLSCAASGFTFNKYAMNWVRQAPGKGMEWVARIRSKYNNYATYYADAVKDRFTISRDDSKNTLYLQMNNLKTEDTAVYYCVRAGNFGSSYISYFAYWGQGTLVTVSSGGGGQGGGGQGGGGQQTVVTQEPSLTVSPGGTVTITCGSSTGAVTSGNYPNWIQKKPGQAPRGLIGGTKFLAPGTPARFSGSLEGGKAALTLSGVQPEDEAEYYCVLYYSNRWVFGSGTKLTVLGGGGQGGGGQGGGGQDKTHTCPPCPAPELLGGPSVFLFPPKPKDTLMISRTPEVTCVVVDVSHEDPEVKFNWYVDGVEVHNAKTKPCEEQYGSTYRCVSVLTVLHQDWLNGKEYKCKVSNKALPAPIEKTISKAKGQPREPQVYTLPPSRKEMTKNQVSLTCLVKGFYPSDIAVEWESNGQPENNYKTTPPVLKSDGSFFLYSKLTVDKSRWQQGNVFSCSVMHEALHNHYTQKSLSLSPGKGGGGQGGGGQGGGGQQVQLQESGPGLVKPSETLSLTCTVSGGSISSSSYFWGWIRQPPGKCLEWIGNIYYSGSSNYNPSLKSRVTISVDTSKNQFSLKLSSVTAADTAVYYCARLPRGDRDAFDIWGQGTMVTVSSGGGGQGGGGQGGGGQEIVMTQSPSSLSASVGDRVTITCRASQGISNYLAWYQQKPGKVPKLLIYAASTLQSGVPSRFSGSGSGTDFTLTISSLQPEDFATYYCQQSYSTPFTFGCGTKVEIK
B2: MSLN-CDH3 T-cell engager molecule 5 (example to FIG. 2D) (bispecific antibody, human IgG1, kappa, N297G)
chain 1: not shown
chain 2: EVQLVESGGGLVQPGGSLKLSCAASGFTFNKYAMNWVRQAPGKGMEWVARIRSKYNNYATYYADAVKDRFTISRDDSKNTLYLQMNNLKTEDTAVYYCVRAGNFGSSYISYFAYWGQGTLVTVSSGGGGQGGGGQGGGGQQTVVTQEPSLTVSPGGTVTITCGSSTGAVTSGNYPNWIQKKPGQAPRGLIGGTKFLAPGTPARFSGSLEGGKAALTLSGVQPEDEAEYYCVLYYSNRWVFGSGTKLTVLGGGGGDKTHTCPPCPAPELLGGPSVFLFPPKPKDTLMISRTPEVTCVVVDVSHEDPEVKFNWYVDGVEVHNAKTKPCEEQYGSTYRCVSVLTVLHQDWLNGKEYKCKVSNKALPAPIEKTISKAKGQPREPQVYTLPPSRKEMTKNQVSLTCLVKGFYPSDIAVEWESNGQPENNYKTTPPVLKSDGSFFLYSKLTVDKSRWQQGNVFSCSVMHEALHNHYTQKSLSLSPGKGGGGQGGGGQGGGGQQVQLQESGPGLVKPSETLSLTCTVSGGSISSSSYFWGWIRQPPGKCLEWIGNIYYSGSSNYNPSLKSRVTISVDTSKNQFSLKLSSVTAADTAVYYCARLPRGDRDAFDIWGQGTMVTVSSGGGGQGGGGQGGGGQEIVMTQSPSSLSASVGDRVTITCRASQGISNYLAWYQQKPGKVPKLLIYAASTLQSGVPSRFSGSGSGTDFTLTISSLQPEDFATYYCQQSYSTPFTFGCGTKVEIK
chain 3: EIQMTQSPSSLSASVGDRVTITCRASQDISNYLNWYQQKPGKVPKLLIYYTSRLHSGVPSRFSGSGSGTDFTLTISSLQPEDVATYYCVQYAQFPLTFGCGTKVEIKRTVAAPSVFIFPPSDEQLKSGTASVVCLLNNFYPREAKVQWKVDNALQSGNSQESVTEQDSKDSTYSLESTLTLSKADYEKHKVYACEVTHQGLSSPVTKSFNRGEC
B3: MSLN-CDH3 T-cell engager molecule 6 (example to FIG. 2L) (bispecific antibody, human IgG1, kappa, lambda, N297G)
chain 1: not shown
chain 2: EVQLVESGGGLVQPGGSLKLSCAASGFTFNKYAMNWVRQAPGKGMEWVARIRSKYNNYATYYADAVKDRFTISRDDSKNTLYLQMNNLKTEDTAVYYCVRAGNFGSSYISYFAYWGQGTLVTVSSASTKGPSVFPLAPSSKSTSGGTAALGCLVKDYFPEPVTVSWNSGALTSGVHTFPAVLQSSGLYSLESVVTVPSSSLGTQTYICNVNHKPSNTKVDKKVEPKSCDKTHTCPPCPAPELLGGPSVFLFPPKPKDTLMISRTPEVTCVVVDVSHEDPEVKFNWYVDGVEVHNAKTKPCEEQYGSTYRCVSVLTVLHQDWLNGKEYKCKVSNKALPAPIEKTISKAKGQPREPQVYTLPPSRKEMTKNQVSLTCLVKGFYPSDIAVEWESNGQPENNYKTTPPVLKSDGSFFLYSKLTVDKSRWQQGNVFSCSVMHEALHNHYTQKSLSLSPGKGGGGQVQLQESGPGLVKPSETLSLTCTVSGGSISSSSYFWGWIRQPPGKCLEWIGNIYYSGSSNYNPSLKSRVTISVDTSKNQFSLKLSSVTAADTAVYYCARLPRGDRDAFDIWGQGTMVTVSSGGGGQGGGGQGGGGQEIVMTQSPSSLSASVGDRVTITCRASQGISNYLAWYQQKPGKVPKLLIYAASTLQSGVPSRFSGSGSGTDFTLTISSLQPEDFATYYCQQSYSTPFTFGCGTKVEIKSGGGGQEVQLVESGGGLVQPGGSLKLSCAASGFTFNKYAMNWVRQAPGKGMEWVARIRSKYNNYATYYADAVKDRFTISRDDSKNTLYLQMNNLKTEDTAVYYCVRAGNFGSSYISYFAYWGQGTLVTVSSGGGGQGGGGQGGGGQQTVVTQEPSLTVSPGGTVTITCGSSTGAVTSGNYPNWIQKKPGQAPRGLIGGTKFLAPGTPARFSGSLEGGKAALTLSGVQPEDEAEYYCVLYYSNRWVFGSGTKLTVL
chain 3: B2 chain 3
chain 4: QTVVTQEPSLTVSPGGTVTITCGSSTGAVTSGNYPNWIQKKPGQAPRGLIGGTKFLAPGTPARFSGSLEGGKAALTLSGVQPEDEAEYYCVLYYSNRWVFGSGTKLTVLGQPKAAPSVTLFPPSSEELQANKATLVCLISDFYPGAVTVAWKADSSPVKAGVETTTPSKQSNNKYAAKSYLSLTPEQWKSHRSYSCQVTHEGSTVEKTVAPTECS
B4: MSLN-CDH3 T-cell engager molecule 7 (example to FIG. 2K) (bispecific antibody, human IgG1, kappa, lambda, N297G)
chain 1: not shown
chain 2: EVQLVESGGGLVQPGGSLKLSCAASGFTFNKYAMNWVRQAPGKGMEWVARIRSKYNNYATYYADAVKDRFTISRDDSKNTLYLQMNNLKTEDTAVYYCVRAGNFGSSYISYFAYWGQGTLVTVSSASTKGPSVFPLAPSSKSTSGGTAALGCLVKDYFPEPVTVSWNSGALTSGVHTFPAVLQSSGLYSLESVVTVPSSSLGTQTYICNVNHKPSNTKVDKKVEPKSCDKTHTCPPCPAPELLGGPSVFLFPPKPKDTLMISRTPEVTCVVVDVSHEDPEVKFNWYVDGVEVHNAKTKPCEEQYGSTYRCVSVLTVLHQDWLNGKEYKCKVSNKALPAPIEKTISKAKGQPREPQVYTLPPSRKEMTKNQVSLTCLVKGFYPSDIAVEWESNGQPENNYKTTPPVLKSDGSFFLYSKLTVDKSRWQQGNVFSCSVMHEALHNHYTQKSLSLSPGKGGGGQGGGGQGGGGQQVQLQESGPGLVKPSETLSLTCTVSGGSISSSSYFWGWIRQPPGKCLEWIGNIYYSGSSNYNPSLKSRVTISVDTSKNQFSLKLSSVTAADTAVYYCARLPRGDRDAFDIWGQGTMVTVSSGGGGQGGGGQGGGGQEIVMTQSPSSLSASVGDRVTITCRASQGISNYLAWYQQKPGKVPKLLIYAASTLQSGVPSRFSGSGSGTDFTLTISSLQPEDFATYYCQQSYSTPFTFGCGTKVEIK
chain 3: B2 chain 3
chain 4: B3 chain 4

Each binder was assayed against T1, CDH3 (Cadherin-3, P-Cadherin) on HCT116 or GSU cells (UniProt P22223 108-829, limits assumed) (assay: cell-based or functional assay).

EC50 HCT116 KO MSLN [pM]; TDCC, MSLN knocked out, CDH3 left	EC50 HCT116 WT [pM]; TDCC, cells double positive for CDH3 and MSLN	Binder
0.62 pM	0.027 pM	B1
2.25 pM	0.039 pM	B2
0.27 pM	0.002 pM	B3
1.5 pM	0.04 pM	B4

The binders below were run against T2, MSLN (Mesothelin) on HCT116 or GSU cells (UniProt Q13421 37-598, limits assumed) (assay: cell-based or functional assay).

EC50 HCT116 KO CDH3 [pM]; TDCC, CDH3 knocked out, MSLN left	EC50 HCT116 WT [pM]; TDCC, cells double positive for CDH3 and MSLN	Binder
3.5 pM	0.027 pM	B1
8.07 pM	0.039 pM	B2
0.58 pM	0.002 pM	B3
25.5 pM	0.04 pM	B4

Target: T1, CDH3 (Cadherin-3, P-Cadherin) on HCT116 …
Experiment: cell-based or functional assay
Remark: another data set of the same source

EC50 GSU KO MSLN [pM]; TDCC, MSLN knocked out, CDH3 left	EC50 GSU WT [pM]; TDCC, cells double positive for CDH3 and MSLN	Binder
36.8 pM	0.098 pM	B1
175 pM	0.128 pM	B2
11.6 pM	0.024 pM	B3
95 pM	0.261 pM	B4

Target: T2, MSLN (Mesothelin) on HCT116 or GSU cells
Experiment: cell-based or functional assay
Remark: another data set of the same source

EC50 GSU KO CDH3 [pM]; TDCC, CDH3 knocked out, MSLN left	EC50 GSU WT [pM]; TDCC, cells double positive for CDH3 and MSLN	Binder
2.89 pM	0.098 pM	B1
10.5 pM	0.128 pM	B2
0.89 pM	0.024 pM	B3
54.6 pM	0.261 pM	B4

— patent publication US20260167720A1 (Amgen, published 2026)
